Patent US20110223188A1, “TARGETED COSTIMULATORY POLYPEPTIDES AND METHODS OF USE TO TREAT CANCER” (priority 2008, published 2011)

Columns and labels:
[1] = test system: Treg; CD4+ T cells expressing high PD-1; test: T cell analysis (Treg, PD-1+/CD4+ T cells) in CT26 tumor-bearing mice; format: in vivo, Balb/C mice
Method: (§1) On Day 9, mice were injected with 100 mg/kg of CTX, IP. Twenty four hours later, on Day 10, mice were treated with 100 ug of 137-DC-Ig. […] Two naïve mice and 4 mice from other groups were removed from the study on Day 11 (2 days post CTX) and Day 16 (7 days post CTX) for T cell analysis. […] Mice implanted with tumor cells intended to have more PD-1+/CD4+ T cells in the draining LN compared with naïve mice.
as §1, with “IP.” for “IP. Twenty four hours later, on Day 10, mice were treated with 100 ug of 137-DC-Ig.”

[2] = test system: SP-1 mouse prostate tumor cells; test: Metastatic prostate lung tumor model (SP-1), survival; format: in vivo, B10.D2 mice; conditions: CTX 50 mg/kg Day 5, 12, 19; B7-DC-Ig 5 mg/kg Day 6, 13, 20
Method: SP-1 cells were isolated from mouse lungs that were metastasized from. TRAMP prostate tumor cell injection. B10.D2 mice were first injected with 3×10^5 SP-1 cells via tail vein injection. On Day 5, 12 and 19, mice were injected with 50 mg/kg of CTX where was indicated. […] Here, “NT” refers to “not treated”.
The CTX mice received 3 doses of CTX, 50 mg/kg, on Day 5, 12 and 19.

[3] = test system: CT26 colorectal tumor cells; test: Established CT26 colorectal tumor model (subcutaneous); conditions: CTX 100 mg/kg on day 10 alone
Excerpt: Balb/C mice at age of 9 to 11 weeks were implanted subcutaneously with 1.0×10^5 CT26 colorectal tumor cells.

P815 mastocytoma = P815 mastocytoma tumor model; format: in vivo, DBA/2 mice
Method: P815 mastocytoma cells were derived from DBA/2 mice after methylcholanthrene (MCA) treatment. Injection of 5×10^4 cells SC can result in mortality approximately 35 days post tumor inoculation.
DBA/2 mice (6-10 weeks of age, females) were first challenged with 5×10^4 live P815 cells injected SC in the flank. Six days later, the mice were treated with murine B7-DC-Ig via IP injection. […] Control groups were treated with vehicle only or with murine IgG. Tumor size was measured with digital calipers every 2-3 days. Mice were euthanized and defined as dead when their tumor size reached or exceeded 1000 mm^3, according to protocols approved by the Institutional Animal Care and Use Committee (IACUC) of the American Red Cross (ARC; the site of Amplimmune's vivarium). Surviving tumor free mice were re-challenged with P815 tumor cells on Day 52.
The tumor-free mice were then re-challenged with 5×10^4P815 cells administered to the flank opposite the primary inoculation site on Day 52.

[4] = number of mice, 5 per group, P815 cells SC, treatment IP biw 3 weeks starting Day 6

O=P1(N(CCCl)CCCl)NCCCO1 (stereo not drawn) [CTX, cyclophosphamide, reference compound]
Treg in the spleen vs tumor-implanted vehicle-injected mice ([1]; Day 11, 2 days post CTX 100 mg/kg IP): significantly lower
mice survived on Day 100 [2]: 17%
outcome of mice (tumor growth/survival) [3]: died as a result of tumor growth or were euthanized

B1: Murine B7-DC-Ig: murine B7-DC fusion protein: B7-DC extracellular domain fused to murine immunoglobulin Cγ2a hinge, CH2, CH3 (likely SEQ ID NO:80/81) (protein)
chain: MLLLLPILNLSLQLHPVAALFTVTAPKEVYTVDVGSSVSLECDFDRRECTELEGIRASLQKVENDTSLQSERATLLEEQLPLGKALFHIPSVQVRDSGQYRCLVICGAAWDYKYLTVKVKASYMRIDTRILEVPGTGEVQLTCQARGYPLAEVSWQNVSVPANTSHIRTPEGLYQVTSVLRLKPQPSRNFSCMFWNAHMKELTSAIIDPLSRMEPKVPRTWEPRGPTIKPCPPCKCPAPNLLGGPSVFIFPPKIKDVLMISLSPIVTCVVVDVSEDDPDVQISWFVNNVEVHTAQTQTHREDYNSTLRVVSALPIQHQDWMSGKEFKCKVNNKDLPAPIERTISKPKGSVRAPQVYVLPPPEEEMTKKQVTLTCMVTDFMPEDIYVEWTNNGKTELNYKNTEPVLDSDGSYFMYSKLRVEKKNWVERNSYSCSVVHEGLHNHHTTKSFSRTPGK
modifications: Synthetic murine B7-DC fusion protein with signal peptide
CD4+ T cells expressing high PD-1 ([1]; Day 16, 7 days post CTX and 6 days post B7-DC-Ig 100 ug): significantly lowered
mice survived on Day 100 [2]: 17%
mice responded to treatment (P815 mastocytoma; 100 μg per injection (approximately 5 mg/kg) IP, 2 times per week, up to 6 doses): Four of 5
# Tumor <500 mm^3 (P815 mastocytoma; [4]): 2
# Tumor free (P815 mastocytoma; [4]): 2
# Tumor ≧500 mm^3 (P815 mastocytoma; [4]): 1
mice in which tumor was eradicated (P815 mastocytoma; of 5 treated mice): two
mice showing delayed tumor growth during treatment (P815 mastocytoma; of 5 treated mice): two
tumor status after re-challenge with P815 cells on Day 52 (P815 mastocytoma; tumor-free mice re-challenged on opposite flank, followed through 74 days after primary inoculation): remained tumor free
